Measurements: paper PMC5836505

How the values were obtained:
GST-FUS [1] = target: T1, GST-FUS (Homo sapiens, UniProt P35637 1-526); experiment: EMSA
His-FUS = His-FUS (UniProt P35637 1-526); experiment: single-molecule TIRF
GST-FUS [2] = target: T1, GST-FUS; experiment: EMSA; remark: listed apart in the source
GST-FUS [3] = target: T1, GST-FUS; experiment: competition

T1 sequence (P35637 whole entry): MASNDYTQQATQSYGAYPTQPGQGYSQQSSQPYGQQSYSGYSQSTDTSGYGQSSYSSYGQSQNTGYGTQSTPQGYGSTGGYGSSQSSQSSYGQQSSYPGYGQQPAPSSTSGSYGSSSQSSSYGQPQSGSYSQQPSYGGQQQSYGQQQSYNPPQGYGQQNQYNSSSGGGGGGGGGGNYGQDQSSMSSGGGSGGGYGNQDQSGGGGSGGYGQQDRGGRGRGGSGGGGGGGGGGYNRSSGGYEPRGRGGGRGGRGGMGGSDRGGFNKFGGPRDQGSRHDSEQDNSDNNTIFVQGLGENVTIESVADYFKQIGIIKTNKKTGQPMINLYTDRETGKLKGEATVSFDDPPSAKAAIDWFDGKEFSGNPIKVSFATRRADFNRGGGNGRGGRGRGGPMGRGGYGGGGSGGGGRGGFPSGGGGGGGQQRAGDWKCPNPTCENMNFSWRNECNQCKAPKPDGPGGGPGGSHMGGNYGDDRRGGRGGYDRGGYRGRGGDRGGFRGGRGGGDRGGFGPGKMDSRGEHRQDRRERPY
Sequence of His-FUS (P35637 whole entry): as above

B1: miR-200c (Cy5) (ssRNA)
RNA: UAAUACUGCCGGGUAAUGAUGGA
Does B1 bind (GST-FUS [1])?
Result: binds

Does B1 bind (His-FUS)?
Result: binds

B2: GGUG oligo (ssRNA)
RNA: UUGUAUUUUGAGCUAGUUUGGUGAC
Does B2 bind (GST-FUS [2])?
Result: binds

B3: miR-200c (untagged) (ssRNA)
RNA: UAAUACUGCCGGGUAAUGAUGGA
Does B3 bind (GST-FUS [3])?
Result: binds
